Experiment [1] has as its target Human γD-crystallin I4F/V76D, bimane-labeled at cysteine 111 (human) (UniProt P07320). Put plainly: fluorescence polarisation. (In general: Polarisation of emitted light reports the rotation of a fluorescent probe.)
Experiment [2] addresses T1, triply phosphorylated analog (S19D/S45D/S59D) of αB-crystallin (UniProt P02511 1-175, S19D | S45D | S59D).
T1 sequence (looked up): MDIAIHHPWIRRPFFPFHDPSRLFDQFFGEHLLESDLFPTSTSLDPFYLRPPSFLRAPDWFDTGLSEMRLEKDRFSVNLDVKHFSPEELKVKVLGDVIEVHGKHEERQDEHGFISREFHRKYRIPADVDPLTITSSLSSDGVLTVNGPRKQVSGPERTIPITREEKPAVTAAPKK
Put plainly: fluorescence polarisation.

For orientation: Kd means the constant that tells how readily two partners part at equilibrium. Turning to “αB-crystallin (from UniProt P02511 1-175) (natural protein)”, the equilibrium dissociation constant (Kd) in experiment [1] was > 300 µM.

B1: Human γD-crystallin I4F/V76D, bimane-labeled at cysteine 111 (natural protein)
chain: GKFTLYEDRGFQGRHYECSSDHPNLQPYLSRCNSARVDSGCWMLYEQPNYSGLQYFLRRGDYADHQQWMGLSDSDRSCRLIPHSGSHRIRLYEREDYRGQMIEFTEDCSCLQDRFRFNEIHSLNVLEGSWVLYELSNYRGRQYLLMPGDYRRYQDWGATNARVGSLRRVIDFS
modifications: bimane label at cysteine C111
As for B1, in experiment [2], the Kd stood at 27 ± 6 µM.

Source of the values: article PMC3282170 (Febs Letters, 2012).
